Measurements reported in patent US20160297852A1 (FORSCHUNGSZENTRUM JUELICH, published 2016).
Where no end group is shown, it is not given here. [ ]: non-standard residue; d: D form.

B1: D3 amidated (peptide)
peptide: [dR][dP][dR][dT][dR][dL][dH][dT][dH][dR][dN][dR]-NH2
modifications: N-terminus assumed
SMILES: CC(C)C[C@@H](NC(=O)[C@@H](CCCNC(=N)N)NC(=O)[C@H](NC(=O)[C@@H](CCCNC(=N)N)NC(=O)[C@H]1CCCN1C(=O)[C@H](N)CCCNC(=N)N)[C@H](C)O)C(=O)N[C@H](Cc1c[nH]cn1)C(=O)N[C@@H](C(=O)N[C@H](Cc1c[nH]cn1)C(=O)N[C@H](CCCNC(=N)N)C(=O)N[C@H](CC(N)=O)C(=O)N[C@H](CCCNC(=N)N)C(N)=O)[C@H](C)O
B2: RD2 amidated (peptide)
peptide: [dP][dT][dL][dH][dT][dH][dN][dR][dR][dR][dR][dR]-NH2
modifications: N-terminus assumed
SMILES: CC(C)C[C@@H](NC(=O)[C@H](NC(=O)[C@H]1CCCN1)[C@H](C)O)C(=O)N[C@H](Cc1c[nH]cn1)C(=O)N[C@@H](C(=O)N[C@H](Cc1c[nH]cn1)C(=O)N[C@H](CC(N)=O)C(=O)N[C@H](CCCNC(=N)N)C(=O)N[C@H](CCCNC(=N)N)C(=O)N[C@H](CCCNC(=N)N)C(=O)N[C@H](CCCNC(=N)N)C(=O)N[C@H](CCCNC(=N)N)C(N)=O)[C@H](C)O
B3: D3D3 amidated (peptide)
peptide: [dR][dP][dR][dT][dR][dL][dH][dT][dH][dR][dN][dR][dR][dP][dR][dT][dR][dL][dH][dT][dH][dR][dN][dR]-NH2
modifications: N-terminus assumed
SMILES: CC(C)C[C@@H](NC(=O)[C@@H](CCCNC(=N)N)NC(=O)[C@H](NC(=O)[C@@H](CCCNC(=N)N)NC(=O)[C@H]1CCCN1C(=O)[C@H](N)CCCNC(=N)N)[C@H](C)O)C(=O)N[C@H](Cc1c[nH]cn1)C(=O)N[C@@H](C(=O)N[C@H](Cc1c[nH]cn1)C(=O)N[C@H](CCCNC(=N)N)C(=O)N[C@H](CC(N)=O)C(=O)N[C@H](CCCNC(=N)N)C(=O)N[C@H](CCCNC(=N)N)C(=O)N1CCC[C@@H]1C(=O)N[C@H](CCCNC(=N)N)C(=O)N[C@@H](C(=O)N[C@H](CCCNC(=N)N)C(=O)N[C@H](CC(C)C)C(=O)N[C@H](Cc1c[nH]cn1)C(=O)N[C@@H](C(=O)N[C@H](Cc1c[nH]cn1)C(=O)N[C@H](CCCNC(=N)N)C(=O)N[C@H](CC(N)=O)C(=O)N[C@H](CCCNC(=N)N)C(N)=O)[C@H](C)O)[C@H](C)O)[C@H](C)O
B4: RD2RD2 amidated (peptide)
peptide: [dP][dT][dL][dH][dT][dH][dN][dR][dR][dR][dR][dR][dP][dT][dL][dH][dT][dH][dN][dR][dR][dR][dR][dR]-NH2
modifications: N-terminus assumed
SMILES: CC(C)C[C@@H](NC(=O)[C@H](NC(=O)[C@H]1CCCN1C(=O)[C@@H](CCCNC(=N)N)NC(=O)[C@@H](CCCNC(=N)N)NC(=O)[C@@H](CCCNC(=N)N)NC(=O)[C@@H](CCCNC(=N)N)NC(=O)[C@@H](CCCNC(=N)N)NC(=O)[C@@H](CC(N)=O)NC(=O)[C@@H](Cc1c[nH]cn1)NC(=O)[C@H](NC(=O)[C@@H](Cc1c[nH]cn1)NC(=O)[C@@H](CC(C)C)NC(=O)[C@H](NC(=O)[C@H]1CCCN1)[C@H](C)O)[C@H](C)O)[C@H](C)O)C(=O)N[C@H](Cc1c[nH]cn1)C(=O)N[C@@H](C(=O)N[C@H](Cc1c[nH]cn1)C(=O)N[C@H](CC(N)=O)C(=O)N[C@H](CCCNC(=N)N)C(=O)N[C@H](CCCNC(=N)N)C(=O)N[C@H](CCCNC(=N)N)C(=O)N[C@H](CCCNC(=N)N)C(=O)N[C@H](CCCNC(=N)N)C(N)=O)[C@H](C)O
B5: RD2D3 amidated (peptide)
peptide: [dP][dT][dL][dH][dT][dH][dN][dR][dR][dR][dR][dR][dR][dP][dR][dT][dR][dL][dH][dT][dH][dR][dN][dR]-NH2
modifications: N-terminus assumed
SMILES: CC(C)C[C@@H](NC(=O)[C@@H](CCCNC(=N)N)NC(=O)[C@H](NC(=O)[C@@H](CCCNC(=N)N)NC(=O)[C@H]1CCCN1C(=O)[C@@H](CCCNC(=N)N)NC(=O)[C@@H](CCCNC(=N)N)NC(=O)[C@@H](CCCNC(=N)N)NC(=O)[C@@H](CCCNC(=N)N)NC(=O)[C@@H](CCCNC(=N)N)NC(=O)[C@@H](CCCNC(=N)N)NC(=O)[C@@H](CC(N)=O)NC(=O)[C@@H](Cc1c[nH]cn1)NC(=O)[C@H](NC(=O)[C@@H](Cc1c[nH]cn1)NC(=O)[C@@H](CC(C)C)NC(=O)[C@H](NC(=O)[C@H]1CCCN1)[C@H](C)O)[C@H](C)O)[C@H](C)O)C(=O)N[C@H](Cc1c[nH]cn1)C(=O)N[C@@H](C(=O)N[C@H](Cc1c[nH]cn1)C(=O)N[C@H](CCCNC(=N)N)C(=O)N[C@H](CC(N)=O)C(=O)N[C@H](CCCNC(=N)N)C(N)=O)[C@H](C)O
B6: D3RD2 amidated (peptide)
peptide: [dR][dP][dR][dT][dR][dL][dH][dT][dH][dR][dN][dR][dP][dT][dL][dH][dT][dH][dN][dR][dR][dR][dR][dR]-NH2
modifications: N-terminus assumed
SMILES: CC(C)C[C@@H](NC(=O)[C@@H](CCCNC(=N)N)NC(=O)[C@H](NC(=O)[C@@H](CCCNC(=N)N)NC(=O)[C@H]1CCCN1C(=O)[C@H](N)CCCNC(=N)N)[C@H](C)O)C(=O)N[C@H](Cc1c[nH]cn1)C(=O)N[C@@H](C(=O)N[C@H](Cc1c[nH]cn1)C(=O)N[C@H](CCCNC(=N)N)C(=O)N[C@H](CC(N)=O)C(=O)N[C@H](CCCNC(=N)N)C(=O)N1CCC[C@@H]1C(=O)N[C@@H](C(=O)N[C@H](CC(C)C)C(=O)N[C@H](Cc1c[nH]cn1)C(=O)N[C@@H](C(=O)N[C@H](Cc1c[nH]cn1)C(=O)N[C@H](CC(N)=O)C(=O)N[C@H](CCCNC(=N)N)C(=O)N[C@H](CCCNC(=N)N)C(=O)N[C@H](CCCNC(=N)N)C(=O)N[C@H](CCCNC(=N)N)C(=O)N[C@H](CCCNC(=N)N)C(N)=O)[C@H](C)O)[C@H](C)O)[C@H](C)O

What follows are binders tested against A beta oligomers of the QIAD test (A beta aggregated under controlled conditions) (UniProt P05067 672-713, limits assumed) (assay: cell-based or functional assay).
A beta oligomers of the QIAD test (A beta aggregated under controlled conditions), sequence (P05067 672-713 limits assumed): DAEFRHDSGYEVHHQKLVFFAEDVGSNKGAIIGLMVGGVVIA

Row | Binder | QIAD: reduction of oligomers in % [%]
1 | B1 | 56
2 | B2 | 78
3 | B3 | 98
4 | B4 | 97
5 | B5 | 100
6 | B6 | 88
